Where a chain is given by its changes, count along the chain named. Numbers in names are those of the source.

The source of these data is PMC5206748, “Disruption of cell adhesion by an antibody targeting the cell-adhesive intermediate (X-dimer) of human P-cadherin” (Scientific Reports, 2017).

Holding throughout (conditions): both partners purified
Test [1] has as its target T1, human P-cadherin EC12 K14E (residues 1-213) (Homo sapiens, UniProt P22223, point mutant).
T1 construct: human P-cadherin, residues 1-213 with K14E; numbers count on: the mature protein; also called strand-swap dimer construct; source: E. coli Rosetta2 (DE3), purified (Ni-NTA, SUMO tag cleaved with Ulp1, SEC)
As to the kind of experiment: ITC; iTC200; antibody in the cell (15-30 μM), P-cadherin construct in the syringe (150-300 μM); 15 °C; one-site binding model. For orientation: ITC needs no label: the signal is the heat of the interaction.

The target in test [2] is T2, human P-cadherin MEC12 (additional Met + residues 1-213) (Homo sapiens).
T2 construct: numbers count on: the mature protein; also called X-dimer construct; source: E. coli Rosetta2 (DE3), purified (Ni-NTA, SUMO tag cleaved with Ulp1, SEC)
The test is described as above.

The target of test [3] is T3, human P-cadherin MEC12 K14E (additional Met + residues 1-213) (Homo sapiens, point mutant).
T3 construct: human P-cadherin, residues 1-213 with K14E; numbers count on: the mature protein; also called monomer construct; source: E. coli Rosetta2 (DE3), purified (Ni-NTA, SUMO tag cleaved with Ulp1, SEC)
The test is described as above.

The target of test [4] is T4, human P-cadherin MEC1 (additional Met + residues 1-129) (Homo sapiens).
T4 construct: numbers count on: the mature protein; source: E. coli Rosetta2 (DE3), purified (Ni-NTA, SUMO tag cleaved with Ulp1, SEC)
T4 chain: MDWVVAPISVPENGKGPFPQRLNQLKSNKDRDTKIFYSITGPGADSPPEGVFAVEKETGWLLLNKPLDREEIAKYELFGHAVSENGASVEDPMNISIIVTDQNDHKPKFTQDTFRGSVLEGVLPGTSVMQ
As to the kind of experiment: SPR; Biacore T200; MEC1 immobilised on a CM5 chip by amine coupling (~250 RU); scFv as analyte, 0.49-62.5 nM; 25 °C; 10 mM HEPES, 150 mM NaCl, 3 mM CaCl2, pH 7.5, 0.05% Tween-20; global fitting. On the technique in general: Surface plasmon resonance follows binding to a sensor surface in real time, without labels.

For test [5], the target named is T5, human E-cadherin EC12 (Homo sapiens, UniProt P12830).
T5 construct: human E-cadherin, domains EC1-EC2; also called E-cad EC12; source: E. coli Rosetta2 (DE3), purified (Ni-NTA, SUMO tag cleaved with Ulp1, SEC)
The test can be described thus: SEC; the solution left in the ITC cell (antibody 25 μM titrated with human E-cadherin EC12 250 μM at 30 °C) injected on Superose 12 10/300 GL; 0.5 mL/min; 25 °C; 10 mM HEPES, 150 mM NaCl, 3 mM CaCl2, pH 7.5. On the technique in general: Size exclusion chromatography separates by hydrodynamic size, large species first.

Test [6] deals with T6, human P-cadherin MEC1 (Homo sapiens, UniProt P22223).
T6 construct: additional Met before the N-terminus; P-cadherin (cadherin-3), human, extracellular domain EC1; source: E. coli Rosetta2 (DE3), SUMO fusion, Ni-NTA, SUMO cleaved with Ulp1, SEC
As to the kind of experiment: SPR; MEC1 immobilised on a CM5 chip by amine coupling (~250 RU); antibodies as analyte 0.49-62.5 nM; 25 °C; 10 mM HEPES, 150 mM NaCl, 3 mM CaCl2, pH 7.5, 0.05% Tween-20; global fitting.

For test [7], the target named is T7, human E-cadherin EC12 (Homo sapiens, UniProt P12830).
T7 construct: E-cadherin (cadherin-1), human, extracellular domains EC1-EC2; source: E. coli Rosetta2 (DE3), SUMO fusion, Ni-NTA, SUMO cleaved with Ulp1, SEC
The test can be described thus: ITC + SEC; antibodies (25 μM) in the cell titrated with human E-cadherin EC12 (250 μM) in the syringe, 30 °C; the solution left in the cell was then run on Superose 12 in 10 mM HEPES, 150 mM NaCl, 3 mM CaCl2, pH 7.5.

For test [8], the target named is T1, human P-cadherin EC12 K14E (residues …). The test can be described thus: SPR; scFv (100 nM) captured on anti-His6-tag antibody immobilised on a CM5 chip; P-cadherin construct as analyte (1.25-20 nM strand-swap dimer, 6.25-100 nM monomer); global fitting; the paper puts the lower KD for the strand-swap dimer down to an avidity effect.
Test [9] deals with T3, human P-cadherin MEC12 K14E (additional …). The description is as above.
The target of test [10] is T8, human P-cadherin MEC12 (human, UniProt P22223).
T8 construct: additional Met at the N-terminus of EC12; P-cadherin (cadherin-3), human, extracellular domains EC1-EC2; Fast exchange between monomer and X-dimer; also called X-dimer construct; source: E. coli Rosetta2 (DE3), SUMO fusion, Ni-NTA, SUMO cleaved with Ulp1, SEC
The test can be described thus: ITC; antibodies (15-30 μM) in the cell titrated with cadherins (150-300 μM); 15 °C; one-site binding model.

T3 sequence (chain, as listed by the source point mutant | K14E K14E): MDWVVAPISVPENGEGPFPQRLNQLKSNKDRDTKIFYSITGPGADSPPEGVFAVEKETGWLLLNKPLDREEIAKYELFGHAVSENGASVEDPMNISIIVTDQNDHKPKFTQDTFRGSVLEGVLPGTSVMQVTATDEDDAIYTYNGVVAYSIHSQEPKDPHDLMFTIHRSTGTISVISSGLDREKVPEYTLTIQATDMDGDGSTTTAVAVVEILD

B1: TSP11 single-chain Fv (anti-human P-cadherin antibody) (scFv, V domains shown)
VH: QVQLQQPGTELVKPGASVKLSCKASGYTFTRYWINWVKQRPQGGLEWIGNIYPGSNITNYNEKFKNKATLTVDTSSNTAYMQLSSLTSDDSAVYYCAREGIYDGYFPLFPYWGQGTLVTVSA
VL: ENVLTQSPAIMAASPGEKVTMTCSASSSVSSGNFHWYQQKPGTSPKLWIYRTSNLASGVPARFSGSGSGTSYSLTISSMEAEDAATYYCQQWSGYPWTFGGGTKLEIK
notes: VH of TSP11; flexible (Gly4-Ser)3 peptide linker between VH and VL; VL of TSP11; Construct pelB-VH-GS-linker-VL-His6 in pRA2
One may read the stoichiometry N as a count of units in the complex or per binding partner. Broadly, the koff is the rate constant with which the complex falls apart. Broadly, the kon is the second-order rate constant of association. In the case of B1, the “stoichiometry N” value in test [1] was found to be 0.61. Besides, the “stoichiometry N” value in test [2] was determined as 0.71. The “stoichiometry N” value in [3] worked out at 0.61. In [4], the Kd came to 14 nM, the dissociation rate constant (koff) worked out at 0.0039 s⁻¹ and the on-rate (kon) was 280000 M⁻¹ s⁻¹. Further, the binding result in [5] was “no binding”.

B2: TSP11 (anti-human P-cadherin antibody, scFv format) (scFv, V domains shown)
VH: B1 VH
VL: B1 VL
notes: VH of TSP11 (antibody from mice immunised with human P-cadherin EC1-EC5); flexible (Gly4-Ser)3 peptide linker; VL of TSP11; Construct pelB-VH-GS-linker-VL-His6 in pRA2; not shown: His6, C-terminal, kept
As to B2, the Kd in test [6] is around 10 nM. For the same molecule, in test [7], the binding result is recorded as “no binding”.

B3: TSP7 single-chain Fv (anti-human P-cadherin antibody) (scFv, V domains shown)
VH: QVQLQESGPELVKPGASVKMSCKASGYSFTAYNMHWVKQSHGKSLEWIGFIDPYSGIITYNQTFKGKATLTVDKSSSTAYMQLNSLTSEDSAVYYCARRGYYDGGFDYWGQGTTLTVSS
VL: DIQMTQTTSSLSASLGDRVTISCRASQDITNYLNWYQQKPDGTVKLLIYYTSRLHSGVPSRFSGSGSGTDYSLTISNLEQEDIATYFCQQDSKHPRTFGGGTKLEIK
notes: VH of TSP7; flexible (Gly4-Ser)3 peptide linker between VH and VL; VL of TSP7; Construct pelB-VH-GS-linker-VL-His6 in pRA2; Residue numbers run through the whole scFv (Asp229 and Arg234 lie in the VL); also called TSP7 (WT); TSP7 WT; not shown: His6, C-terminal, kept
Turning to B3, the figures for the “stoichiometry N” value in [1] and in test [3] were 0.71 and 0.74, respectively. In addition, the Kd was 8.7 nM in test [4], 0.24 nM in test [8] and 63 nM in test [9]. Further, the off-rate constant (koff) in test [4] amounted to 0.026 s⁻¹; in [8], 0.00015 s⁻¹; in test [9] it was 0.03 s⁻¹. For the same molecule, the association rate constant (kon) came to 3e+06 M⁻¹ s⁻¹ in [4], 620000 M⁻¹ s⁻¹ in test [8] and 480000 M⁻¹ s⁻¹ in [9]. The binding result in test [5] is on record as “no binding”.

B4: TSP7 S77R single-chain Fv (scFv, V domains shown)
VH: B3 VH with S77R
VL: B3 VL
notes: as the VH of Dm1 (TSP7, PDB 5JYL) with S77R; flexible (Gly4-Ser)3 peptide linker between VH and VL; as the VL of Dm1 (TSP7, PDB 5JYL); source: purified to homogeneity in a soluble monomeric form; not shown: His6, C-terminal, kept
As to B4, in [8], the Kd stood at 0.53 nM, the koff was found to be 0.00039 s⁻¹ and the kon was 730000 M⁻¹ s⁻¹. Also, in test [9], the Kd is 71 nM, the koff was 0.032 s⁻¹ and the kon turned out to be 450000 M⁻¹ s⁻¹.

B5: TSP7 (anti-human P-cadherin antibody, scFv format) (scFv, V domains shown)
VH: B3 VH
VL: B3 VL
notes: VH of TSP7 (antibody from mice immunised with human P-cadherin EC1-EC5); flexible (Gly4-Ser)3 peptide linker; VL of TSP7; Construct pelB-VH-GS-linker-VL-His6 in pRA2; also called TSP7 WT; not shown: His6, C-terminal, kept
With B5, in test [10], the “stoichiometry N” value worked out at 1.5. Besides, in test [6], the Kd is around 10 nM. The binding result in [7] is on record as “no binding”.
